This data set deals with Saccharomyces cerevisiae. Put plainly: protein stability index of tFT-peptide fusion (C-terminal peptide) (PSI (0-1 scale)); higher = more stable (slower turnover). The conditions noted are these: temperature: 30 C. The protocol:
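MPS profiling in S. cerevisiae of the yeast C-terminome library: the last 12 aa of each annotated ORF are fused to the C-terminus of a sfGFP-mCherry timer, after a GGGS linker. Cells are FACS-sorted into 8 mCherry/sfGFP bins and deep-sequenced. PSI runs from 0 (unstable) to 1 (stable); wild type and das1Δ backgrounds, two technical replicates each.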

Where [1] appears, read: genetic background: das1 deletion.

± gives the standard deviation of the averaged measurements.

This note sets out measurements from the supplement of paper PMC10724198.

AHYNNGLQWFSD [EMC4 C-terminal 12 aa] had a protein stability index under setting [1] of 0.7084 ± 0.0065 and a protein stability index (genetic background: wild type) of 0.728 ± 0.014.

On to AIGNCVQDEEKL [AVL9 C-terminal 12 aa], for which the protein stability index is, setting by setting: under setting [1], 0.717 ± 0.0097; (genetic background: wild type) 0.679 ± 0.035.

Regarding AIMAVACNVIFS [AGA1 C-terminal 12 aa], the protein stability index by setting is: under setting [1], 0.292 ± 0.024; (genetic background: wild type) 0.315 ± 0.005.

In the case of AIWKHGIVEEKI [TMA19 C-terminal 12 aa], the protein stability index by setting is: under setting [1], 0.695 ± 0.014; (genetic background: wild type) 0.694 ± 0.026.

For AKLFKEIFAYKV [COQ8 C-terminal 12 aa], the protein stability index was 0.664 ± 0.0097 under setting [1] and 0.66 ± 0.019 (genetic background: wild type).

AKSLIHLFTSNQ [NRM1 C-terminal 12 aa]: the protein stability index was 0.694 ± 0.042 under setting [1] and 0.7334 ± 0.0027 (genetic background: wild type).

For the sequence “AKWSISHKSNTG [YIL066W-A C-terminal 12 aa]”, the protein stability index is, setting by setting: under setting [1], 0.694 ± 0.0059; (genetic background: wild type) 0.69 ± 0.037.

For the sequence ALGEHYNSLHDS [OTU2 C-terminal 12 aa], the protein stability index under setting [1] came to 0.7 ± 0.016 and the protein stability index (genetic background: wild type) was 0.653 ± 0.0071.

As for ALKKEYEAKKKA [COA3 C-terminal 12 aa], the protein stability index by setting is: under setting [1], 0.6861 ± 0.0068; (genetic background: wild type) 0.664 ± 0.0072.

For the sequence ALPTYTMEYLDI [UTP8 C-terminal 12 aa], the protein stability index runs as follows: under setting [1], 0.72 ± 0.032; (genetic background: wild type) 0.698 ± 0.035.

For ALQVLEERMVNP [YOL107W C-terminal 12 aa], the protein stability index runs as follows: under setting [1], 0.7046 ± 0.003; (genetic background: wild type) 0.699 ± 0.0077.

AMDHKFFKTKFE [CKA2 C-terminal 12 aa]: the protein stability index by setting is: under setting [1], 0.68817 ± 0.00016; (genetic background: wild type) 0.708 ± 0.025.

For AMMKAEENFVKS [MAG1 C-terminal 12 aa], the protein stability index by setting is: under setting [1], 0.655 ± 0.029; (genetic background: wild type) 0.6762 ± 0.00091.

Turning to ANEALQHILDDS [INO2 C-terminal 12 aa], the protein stability index was determined as 0.6882 ± 0.0011 under setting [1] and 0.69 ± 0.024 (genetic background: wild type).

AQLVSLVRNQKH [YLR198C C-terminal 12 aa]: the protein stability index by setting is: under setting [1], 0.717 ± 0.022; (genetic background: wild type) 0.6998 ± 0.005.

With ARAAAEYDCTVA [ATR1 C-terminal 12 aa], the protein stability index under setting [1] stood at 0.702 ± 0.013 and the protein stability index (genetic background: wild type) is 0.7 ± 0.036.

Regarding ARAAEERMKKKY [VMS1 C-terminal 12 aa], the protein stability index was determined as 0.671 ± 0.023 under setting [1] and 0.663 ± 0.038 (genetic background: wild type).

On to AREAVVRAGFDS [YIH1 C-terminal 12 aa], for which the protein stability index came out at 0.729 ± 0.01 under setting [1] and 0.745 ± 0.071 (genetic background: wild type).

Regarding ASGEYESDGSDD [RRN3 C-terminal 12 aa], the protein stability index came out at 0.677 ± 0.026 under setting [1] and 0.709 ± 0.063 (genetic background: wild type).

As to ASNGSIFQFSSP [REC104 C-terminal 12 aa], the protein stability index reads like this: under setting [1], 0.692 ± 0.023; (genetic background: wild type) 0.718 ± 0.01.

In the case of ASSSDRPTVAAT [RRT5 C-terminal 12 aa], the protein stability index was 0.6995 ± 0.0066 under setting [1] and 0.681 ± 0.021 (genetic background: wild type).

Regarding ATICSVAFVKQN [EFM4 C-terminal 12 aa], the protein stability index runs as follows: under setting [1], 0.6241 ± 0.0034; (genetic background: wild type) 0.224 ± 0.011.

Turning to ATPPYQVFKQQL [FMN1 C-terminal 12 aa], the protein stability index by setting is: under setting [1], 0.698 ± 0.071; (genetic background: wild type) 0.668 ± 0.028.

Turning to ATRRHLAHAPKL [DPI8 C-terminal 12 aa], the protein stability index came to 0.799 ± 0.016 under setting [1] and 0.782 ± 0.064 (genetic background: wild type).

As for AVETLKKGGFLP [YDL177C C-terminal 12 aa], the protein stability index was determined as 0.7 ± 0.013 under setting [1] and 0.685 ± 0.0071 (genetic background: wild type).

On to AVFYIFETLSAL [ORT1 C-terminal 12 aa], for which the protein stability index under setting [1] came to 0.653 ± 0.015 and the protein stability index (genetic background: wild type) was found to be 0.654 ± 0.0084.

With “AVGIQSSESLLM [YMR175W-A C-terminal 12 aa]”, the protein stability index is, setting by setting: under setting [1], 0.688 ± 0.012; (genetic background: wild type) 0.715 ± 0.031.

AVKYLYRQIVRN [EFM2 C-terminal 12 aa]: the protein stability index turned out to be 0.6832 ± 0.0033 under setting [1] and 0.6213 ± 0.0041 (genetic background: wild type).

Regarding AVNGSDGQHCQI [AVT2 C-terminal 12 aa], the protein stability index is, setting by setting: under setting [1], 0.687 ± 0.023; (genetic background: wild type) 0.6543 ± 0.0021.

With AYQITKRGIETA [RAD57 C-terminal 12 aa], the protein stability index under setting [1] is 0.675 ± 0.061 and the protein stability index (genetic background: wild type) was determined as 0.6951 ± 0.004.

As for CAVDAIFYWLLM [GMC1 C-terminal 12 aa], the protein stability index runs as follows: under setting [1], 0.652 ± 0.026; (genetic background: wild type) 0.486 ± 0.026.

CAVGGPEKLKFY [BUD3 C-terminal 12 aa]: the protein stability index by setting is: under setting [1], 0.726 ± 0.018; (genetic background: wild type) 0.758 ± 0.018.

As for “CCGSVLLWCLVV [YLR437C-A C-terminal 12 aa]”, the protein stability index by setting is: under setting [1], 0.4309 ± 0.0019; (genetic background: wild type) 0.27 ± 0.0046.

In the case of CDLVKNSNGLST [YOR200W C-terminal 12 aa], the protein stability index worked out at 0.68 ± 0.01 under setting [1] and 0.685 ± 0.039 (genetic background: wild type).

As to CENANYRGAEVP [YIL175W C-terminal 12 aa], the protein stability index is, setting by setting: under setting [1], 0.692 ± 0.017; (genetic background: wild type) 0.689 ± 0.015.

Consider CFSCFHLSTHTN [YDR157W C-terminal 12 aa], for which the protein stability index was 0.725 ± 0.018 under setting [1] and 0.6252 ± 0.005 (genetic background: wild type).

Consider CFWRMICSEPKL [YAR064W C-terminal 12 aa], for which the protein stability index is, setting by setting: under setting [1], 0.736 ± 0.0093; (genetic background: wild type) 0.623 ± 0.052.

For CGGRPQYGVMFA [YDR249C C-terminal 12 aa], the protein stability index runs as follows: under setting [1], 0.6887 ± 0.0013; (genetic background: wild type) 0.702 ± 0.023.

For the sequence “CINCSRFIHNIN [YMR230W-A C-terminal 12 aa]”, the protein stability index by setting is: under setting [1], 0.70103 ± 0.00057; (genetic background: wild type) 0.304 ± 0.013.

With “CNLFSERKPVNH [YGL188C-A C-terminal 12 aa]”, the protein stability index runs as follows: under setting [1], 0.6966 ± 0.0021; (genetic background: wild type) 0.691 ± 0.011.

For CSGIPSGSGASC [PGU1 C-terminal 12 aa], the protein stability index by setting is: under setting [1], 0.691 ± 0.011; (genetic background: wild type) 0.673 ± 0.076.

In the case of CWMLWLQDRPVC [YBL112C C-terminal 12 aa], the protein stability index reads like this: under setting [1], 0.627 ± 0.017; (genetic background: wild type) 0.625 ± 0.02.

For CYQDYNHDHRSH [OSW2 C-terminal 12 aa], the protein stability index is, setting by setting: under setting [1], 0.7147 ± 0.0055; (genetic background: wild type) 0.6835 ± 0.0018.

On to DAKNANEKNKTY [PIS1 C-terminal 12 aa], for which the protein stability index reads like this: under setting [1], 0.687 ± 0.035; (genetic background: wild type) 0.42 ± 0.033.

As for DATLYLGRFLPH [PEF1 C-terminal 12 aa], the protein stability index stood at 0.70773 ± 2.5e-05 under setting [1] and 0.667 ± 0.01 (genetic background: wild type).

With DDCLIELPNGNI [RRN9 C-terminal 12 aa], the protein stability index is, setting by setting: under setting [1], 0.6888 ± 0.0021; (genetic background: wild type) 0.703 ± 0.041.

Consider DDGIATYNNTQG [KNS1 C-terminal 12 aa], for which the protein stability index runs as follows: under setting [1], 0.693 ± 0.03; (genetic background: wild type) 0.72 ± 0.027.

On to DDILSHGFEPLA [HTC1 C-terminal 12 aa], for which the protein stability index was found to be 0.7177 ± 0.0033 under setting [1] and 0.706 ± 0.027 (genetic background: wild type).

As to DDKFRRSYDVKK [ERG13 C-terminal 12 aa], the protein stability index by setting is: under setting [1], 0.731 ± 0.026; (genetic background: wild type) 0.753 ± 0.12.

In the case of DDTVQFMRRALE [EAF5 C-terminal 12 aa], the protein stability index runs as follows: under setting [1], 0.665 ± 0.045; (genetic background: wild type) 0.719 ± 0.044.

Regarding DEFWTDLFMNDI [WAR1 C-terminal 12 aa], the protein stability index reads like this: under setting [1], 0.77 ± 0.0079; (genetic background: wild type) 0.757 ± 0.036.

Consider DEQKHNENENSR [RPO21 C-terminal 12 aa], for which the protein stability index is, setting by setting: under setting [1], 0.693 ± 0.022; (genetic background: wild type) 0.708 ± 0.021.

As for DESVDMNVGISY [YCL046W C-terminal 12 aa], the protein stability index under setting [1] was 0.721 ± 0.0092 and the protein stability index (genetic background: wild type) stood at 0.718 ± 0.035.

With DETIKLKDKKIK [MRPL6 C-terminal 12 aa], the protein stability index under setting [1] amounted to 0.714 ± 0.012 and the protein stability index (genetic background: wild type) stood at 0.655 ± 0.028.

Sequence DFFREVKYGKKQ [ODC1 C-terminal 12 aa] showed a protein stability index under setting [1] of 0.7097 ± 0.0027 and a protein stability index (genetic background: wild type) of 0.72329 ± 0.00028.

In turn, “DFFYFFQGPFVL [YOR072W-B C-terminal 12 aa]” gave a protein stability index under setting [1] of 0.721 ± 0.013 and a protein stability index (genetic background: wild type) of 0.731 ± 0.044.

DGGWGNRGRSNY [DBP2 C-terminal 12 aa] yielded a protein stability index under setting [1] of 0.701 ± 0.01 and a protein stability index (genetic background: wild type) of 0.667 ± 0.05.

Consider DGKIKIWKISRN [GID7 C-terminal 12 aa], for which the protein stability index reads like this: under setting [1], 0.701 ± 0.021; (genetic background: wild type) 0.711 ± 0.086.

DGLLKNVWSYSR [RPS21A C-terminal 12 aa]: the protein stability index by setting is: under setting [1], 0.7161 ± 0.0069; (genetic background: wild type) 0.7137 ± 0.0025.

DGPKFTFKRRKG [XRS2 C-terminal 12 aa] showed a protein stability index under setting [1] of 0.713 ± 0.027 and a protein stability index (genetic background: wild type) of 0.778 ± 0.041.

In the case of DGWIPTRTDDVK [TAD1 C-terminal 12 aa], the protein stability index is 0.703 ± 0.008 under setting [1] and 0.707 ± 0.094 (genetic background: wild type).

In turn, DGYPKDNEDIDP [MAL13 C-terminal 12 aa] registered a protein stability index under setting [1] of 0.70018 ± 0.0004 and a protein stability index (genetic background: wild type) of 0.708 ± 0.043.

For the sequence DIEVDHTKSTDP [DPB3 C-terminal 12 aa], the protein stability index runs as follows: under setting [1], 0.6917 ± 0.0038; (genetic background: wild type) 0.676 ± 0.018.

DILSQIIESCWV [YNL174W C-terminal 12 aa] came in with a protein stability index under setting [1] of 0.654 ± 0.0069 and a protein stability index (genetic background: wild type) of 0.705 ± 0.083.

As for DIMVFEISNCRV [HIS1 C-terminal 12 aa], the protein stability index reads like this: under setting [1], 0.6816 ± 0.0057; (genetic background: wild type) 0.73 ± 0.052.

As to DIPRSNVYGSLI [SCY1 C-terminal 12 aa], the protein stability index is, setting by setting: under setting [1], 0.7131 ± 0.0063; (genetic background: wild type) 0.672 ± 0.044.

With DITYDDYKSIDF [SUT1 C-terminal 12 aa], the protein stability index was found to be 0.694 ± 0.024 under setting [1] and 0.703 ± 0.095 (genetic background: wild type).
